# Measured values as given in patent US20190382486A1 (Pfizer, published 2019).
# T1: CD3ed (CD3 epsilon/delta fusion protein) (human)
# T1 construct: Expressed in HEK293 and purified on His60 resin and by SEC; also called soluble human CD3ed antigen; hCD3ed
# T1 chain: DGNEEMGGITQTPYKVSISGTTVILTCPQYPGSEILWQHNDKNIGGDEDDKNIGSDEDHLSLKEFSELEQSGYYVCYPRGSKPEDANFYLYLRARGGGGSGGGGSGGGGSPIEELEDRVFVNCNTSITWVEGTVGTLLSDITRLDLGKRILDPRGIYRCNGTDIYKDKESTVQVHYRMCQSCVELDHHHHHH
# B1: GUCY2C-1679 bispecific antibody (bispecific antibody)
# chain 1: DIQLTQSPSSLSASVGDRVTITCRASESVDYYGSSLLQWYQQKPGKAPKLLIYAASKLASGVPSRFSGSGSGTDFTLTISSLQPEDFATYYCQQTRKAYTFGQGTKLEIKGGGSGGGGEVQLVESGGGLVQPGGSLRLSCAASGFTFSDYYMTWVRQAPGKGLEWVAFIRNQARGYTSDHNPSVKGRFTISRDNAKNSLYLQMNSLRAEDTAVYYCARDRPSYYVLDYWGQGTTVTVSSGCPPCPAPEAAGAPSVFLFPPKPKDTLMISRTPEVTCVVVDVSHEDPEVKFNWYVDGVEVHNAKTKPREEQYNSTYRVVSVLTVLHQDWLNGKEYKCKVSNKALPAPIEKTISKAKGQPREPQVCTLPPSREEMTKNQVSLWCLVKGFYPSDIAVEWESNGQPENNYKTTPPVLDSDGSFFLYSKLTVDKSRWQQGNVFSCSVMHEALHNHYTQKSLSLSPG
# chain 2: DIQMTQSPSSLSASVGDRVTITCTSSQSLFNVRSGKNYLAWYQQKPGKAPKLLIYWASDRESGVPSRFSGSGSGTDFTLTISSLQPEDFATYYCKQSYDLFTFGGGTKVEIKGGGGSGGGGEVQLVESGGGLVQPGGSLRLSCAASGFTFSSYWMHWVRQAPGKGLEWIGEIKPSNELTNVHEKFKDRFTISVDKAKNSAYLQMNSLRAEDTAVYYCTRTITTTEGYWFFDVWGQGTLVTVSSGCPPCPAPEAAGAPSVFLFPPKPKDTLMISRTPEVTCVVVDVSHEDPEVKFNWYVDGVEVHNAKTKPREEQYNSTYRVVSVLTVLHQDWLNGKEYKCKVSNKALPAPIEKTISKAKGQPREPQVYTLPPCREEMTKNQVSLSCAVKGFYPSDIAVEWESNGQPENNYKTTPPVLDSDGSFFLVSKLTVDKSRWQQGNVFSCSVMHEALHNHYTQKSLSLSPG
# notes: Bispecific diabody-Fc; also called GUCY2c bispecific with CD3 variant 2B5-1040
# B2: GUCY2C-1678 bispecific antibody (bispecific antibody)
# chain 1: DIQLTQSPSSLSASVGDRVTITCRASESVDYYGSSLLQWYQQKPGKAPKLLIYAASKLASGVPSRFSGSGSGTDFTLTISSLQPEDFATYYCQQTRKAYTFGQGTKLEIKGGGSGGGGEVQLVESGGGLVQPGGSLRLSCAASGFTFSDYYMTWVRQAPGKGLEWVAFIRNQARGYTSDHNPSVKGRFTISRDNAKNSLYLQMNSLRAEDTAVYYCARDRPSYYVLDYWGQGTTVTVSSGCPPCPAPEAAGAPSVFLFPPKPKDTLMISRTPEVTCVVVDVSHEDPEVKFNWYVDGVEVHNAKTKPREEQYNSTYRVVSVLTVLHQDWLNGKEYKCKVSNKALPAPIEKTISKAKGQPREPQVCTLPPSREEMTKNQVSLWCLVKGFYPSDIAVEWESNGQPENNYKTTPPVLDSDGSFFLYSKLTVDKSRWQQGNVFSCSVMHEALHNHYTQKSLSLSPG
# chain 2: DIQMTQSPSSLSASVGDRVTITCTSDQSLFNVRSGKNYLAWYQQKPGKAPKLLIYWASDRESGVPSRFSGSGSGTDFTLTISSLQPEDFATYYCKQSYDLFTFGGGTKVEIKGGGGSGGGGEVQLVESGGGLVQPGGSLRLSCAASGFTFSSYWMHWVRQAPGKGLEWIGEIKPSNELTNVHEKFKDRFTISVDKAKNSAYLQMNSLRAEDTAVYYCTRTITTTEGYWFFDVWGQGTLVTVSSGCPPCPAPEAAGAPSVFLFPPKPKDTLMISRTPEVTCVVVDVSHEDPEVKFNWYVDGVEVHNAKTKPREEQYNSTYRVVSVLTVLHQDWLNGKEYKCKVSNKALPAPIEKTISKAKGQPREPQVYTLPPCREEMTKNQVSLSCAVKGFYPSDIAVEWESNGQPENNYKTTPPVLDSDGSFFLVSKLTVDKSRWQQGNVFSCSVMHEALHNHYTQKSLSLSPG
# notes: Bispecific diabody-Fc; also called GUCY2c bispecific with CD3 variant 2B5-1038
# B3: GUCY2C-1680 bispecific antibody (bispecific antibody)
# chain 1: DIQLTQSPSSLSASVGDRVTITCRASESVDYYGSSLLQWYQQKPGKAPKLLIYAASKLASGVPSRFSGSGSGTDFTLTISSLQPEDFATYYCQQTRKAYTFGQGTKLEIKGGGSGGGGEVQLVESGGGLVQPGGSLRLSCAASGFTFSDYYMTWVRQAPGKGLEWVAFIRNQARGYTSDHNPSVKGRFTISRDNAKNSLYLQMNSLRAEDTAVYYCARDRPSYYVLDYWGQGTTVTVSSGCPPCPAPEAAGAPSVFLFPPKPKDTLMISRTPEVTCVVVDVSHEDPEVKFNWYVDGVEVHNAKTKPREEQYNSTYRVVSVLTVLHQDWLNGKEYKCKVSNKALPAPIEKTISKAKGQPREPQVCTLPPSREEMTKNQVSLWCLVKGFYPSDIAVEWESNGQPENNYKTTPPVLDSDGSFFLYSKLTVDKSRWQQGNVFSCSVMHEALHNHYTQKSLSLSPG
# chain 2: DIQMTQSPSSLSASVGDRVTITCTSSESLFNVRSGKNYLAWYQQKPGKAPKLLIYWASDRESGVPSRFSGSGSGTDFTLTISSLQPEDFATYYCKQSYDLFTFGGGTKVEIKGGGGSGGGGEVQLVESGGGLVQPGGSLRLSCAASGFTFSSYWMHWVRQAPGKGLEWIGEIKPSNELTNVHEKFKDRFTISVDKAKNSAYLQMNSLRAEDTAVYYCTRTITTTEGYWFFDVWGQGTLVTVSSGCPPCPAPEAAGAPSVFLFPPKPKDTLMISRTPEVTCVVVDVSHEDPEVKFNWYVDGVEVHNAKTKPREEQYNSTYRVVSVLTVLHQDWLNGKEYKCKVSNKALPAPIEKTISKAKGQPREPQVYTLPPCREEMTKNQVSLSCAVKGFYPSDIAVEWESNGQPENNYKTTPPVLDSDGSFFLVSKLTVDKSRWQQGNVFSCSVMHEALHNHYTQKSLSLSPG
# notes: Bispecific diabody-Fc; also called GUCY2c bispecific with CD3 variant 2B5-1039
# B4: GUCY2c-H2B4 bispecific antibody (bispecific antibody, human IgG1)
# chain 1: DIQLTQSPSSLSASVGDRVTITCRASESVDYYGTSLMQWYQQKPGKPPKLLIYAASNVESGVPSRFSGSGSGTDFTLTISSLQPEDFATYYCQQTRKVYTFGQGTKLEIKGGGSGGGGEVQLVESGGGLVQPGGSLRLSCAASGFTFSDYYMTWVRQAPGKGLEWVAFIRNRARGYTSDHNPSVKGRFTISRDNAKNSLYLQMNSLRAEDTAVYYCARDRPSYYVLDYWGQGTTVTVSSGCPPCPAPEAAGAPSVFLFPPKPKDTLMISRTPEVTCVVVDVSHEDPEVKFNWYVDGVEVHNAKTKPREEQYNSTYRVVSVLTVLHQDWLNGKEYKCKVSNKALPAPIEKTISKAKGQPREPQVCTLPPSREEMTKNQVSLWCLVKGFYPSDIAVEWESNGQPENNYKTTPPVLDSDGSFFLYSKLTVDKSRWQQGNVFSCSVMHEALHNHYTQKSLSLSPG
# chain 2: DIVMTQSPDSLAVSLGERATINCKSSQSLFNVRSRKNYLAWYQQKPGQPPKLLISWASTRESGVPDRFSGSGSGTDFTLTISSLQAEDVAVYYCKQSYDLFTFGSGTKLEIKGGGSGGGGEVQLVESGGGLVQPGGSLRLSCAASGYTFTSYWMHWVRQAPGKGLEWIGEIKPSNGLTNYIEKFKNRFTISVDKAKNSAYLQMNSLRAEDTAVYYCTRTITTTEGYWFFDVWGQGTLVTVSSGCPPCPAPEAAGAPSVFLFPPKPKDTLMISRTPEVTCVVVDVSHEDPEVKFNWYVDGVEVHNAKTKPREEQYNSTYRVVSVLTVLHQDWLNGKEYKCKVSNKALPAPIEKTISKAKGQPREPQVYTLPPCREEMTKNQVSLSCAVKGFYPSDIAVEWESNGQPENNYKTTPPVLDSDGSFFLVSKLTVDKSRWQQGNVFSCSVMHEALHNHYTQKSLSLSPG
# notes: Bispecific diabody-Fc (knob-in-hole, effector null human IgG1 Fc)
# B5: 2B5v6-0517 (antibody, V domains shown)
# VH: EVQLVESGGGLVQPGGSLRLSCAASGFTFSDYYMTWVRQAPGKGLEWVAFIRNQARGYTSDHQPSVKGRFTISRDNAKNSLYLQMNSLRAEDTAVYYCARDRPSYYVLDYWGQGTTVTVSS
# VL: DIQMTQSPSSLSASVGDRVTITCTSSQSLFNVRSGKNYLAWYQQKPGKAPKLLIYWASTRESGVPSRFSGSGSGTDFTLTISSLQPEDFATYYCKQSYDLFTFGGGTKVEIK
# notes: Tested as a monovalent IgG; also called 2B5-0517
# B6: 2B5v6-0522 (antibody, V domains shown)
# VH: EVQLVESGGGLVQPGGSLRLSCAASGFTFSDYYMTWVRQAPGKGLEWVAFIRNQARGYTSDHQPSVKGRFTISRDNAKNSLYLQMNSLRAEDTAVYYCARDRPSYYVLDYWGQGTTVTVSS
# VL: DIQMTQSPSSLSASVGDRVTITCTSSQSLFNVRSQKNYLAWYQQKPGKAPKLLIYWASDRESGVPSRFSGSGSGTDFTLTISSLQPEDFATYYCKQSYDLFTFGGGTKVEIK
# notes: Tested as a monovalent IgG; also called 2B5-0522
# B7: 2B5v6-0533 (antibody, V domains shown)
# VH: EVQLVESGGGLVQPGGSLRLSCAASGFTFSDYYMTWVRQAPGKGLEWVAFIRNQARGYTSDHNPSVKGRFTISRDNAKNSLYLQMNSLRAEDTAVYYCARDRPSYYVLDYWGQGTTVTVSS
# VL: DIQMTQSPSSLSASVGDRVTITCTSSQSLFNVRSGKNYLAWYQQKPGKAPKLLIYWASTRESGVPSRFSGSGSGTDFTLTISSLQPEDFATYYCKQSYDLFTFGGGTKVEIK
# notes: Tested as a monovalent IgG; also called 2B5-0533
# B8: 2B5v6-0538 (antibody, V domains shown)
# VH: EVQLVESGGGLVQPGGSLRLSCAASGFTFSDYYMTWVRQAPGKGLEWVAFIRNQARGYTSDHNPSVKGRFTISRDNAKNSLYLQMNSLRAEDTAVYYCARDRPSYYVLDYWGQGTTVTVSS
# VL: DIQMTQSPSSLSASVGDRVTITCTSSQSLFNVRSQKNYLAWYQQKPGKAPKLLIYWASDRESGVPSRFSGSGSGTDFTLTISSLQPEDFATYYCKQSYDLFTFGGGTKVEIK
# notes: Tested as a monovalent IgG; also called 2B5-0538
# Experiments:
# [1] = biological target: T2, human CD3 epsilon subunit (CD3e), as cell surface CD3 on Jurkat cells and on naive human T cells (human, UniProt P07766 23-207); experiment: cell-based or functional assay
# [2] = biological target: T1, CD3ed (CD3 epsilon/delta fusion protein); experiment: SPR, recombinant human CD3
# [3] = biological target: T2, human CD3 epsilon subunit (CD3e), as …; experiment: flow cytometry titration on naive human T cells (PE-A Geo Mean against Ab in nM); Kd printed beside the legend
# [4] = biological target: T2, human CD3 epsilon subunit (CD3e), as …; experiment: FACS on Jurkat cells expressing CD3, monovalent IgG
# Method: All the mutants were generated as monovalent IgG antibodies using standard transient HEK293 expression followed by purification using Protein A column. The resulting clones were tested for binding to Jurkat cells expressing CD3 using FACS and self-association potential using AC-SINS as described above in Example 7. As shown in Table 16, five molecules with improved epivax score and reduced T-cell epitopes and retained affinity to CD3 were chosen to move forward and test in diabody-Fc format. The 2B5v6 variants with improved epivax scores were compared to the parental 2B5v6.
# Target sequence in this assay (P07766 23-207 limits assumed): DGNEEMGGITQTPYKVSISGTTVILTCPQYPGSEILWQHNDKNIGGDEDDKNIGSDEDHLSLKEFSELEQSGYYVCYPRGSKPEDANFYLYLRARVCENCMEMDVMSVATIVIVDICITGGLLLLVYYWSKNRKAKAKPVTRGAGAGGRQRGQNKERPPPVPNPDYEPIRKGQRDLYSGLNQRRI
Binder,In vitro Cytotoxicity [1] [nM],Kd [2] [nM],EC50 [4] [nM],further results
B1,0.194,72,–,–
B2,0.247,63.5,–,–
B3,0.385,78.6,–,–
B4,–,–,–,Kd [3]: 8.18 nM
B5,–,–,9.9,–
B6,–,–,8.6,–
B7,–,–,6.1,–
B8,–,–,9.2,–
